“And” between values parts separate entries of the source, which are not always exact repeats. Identical values can stand only once.
Experiments:
SC-K^d -15 [1] = molecular target: T1, SC-K^d -15 (Mus musculus, UniProt P01887+P01902); experiment: Direct peptide binding assay, solid phase, with purified 35S-labeled SC-Kd; settings: for binding of peptide to SC-K^d -15 (in words): direct binding assay
T1 construct: connecting residue 276 of K^d heavy chain to the first residue of β2 -microglobulin through spacers; made in house
T1 sequence (P01902+P01887 with tags, fused parts or gaps): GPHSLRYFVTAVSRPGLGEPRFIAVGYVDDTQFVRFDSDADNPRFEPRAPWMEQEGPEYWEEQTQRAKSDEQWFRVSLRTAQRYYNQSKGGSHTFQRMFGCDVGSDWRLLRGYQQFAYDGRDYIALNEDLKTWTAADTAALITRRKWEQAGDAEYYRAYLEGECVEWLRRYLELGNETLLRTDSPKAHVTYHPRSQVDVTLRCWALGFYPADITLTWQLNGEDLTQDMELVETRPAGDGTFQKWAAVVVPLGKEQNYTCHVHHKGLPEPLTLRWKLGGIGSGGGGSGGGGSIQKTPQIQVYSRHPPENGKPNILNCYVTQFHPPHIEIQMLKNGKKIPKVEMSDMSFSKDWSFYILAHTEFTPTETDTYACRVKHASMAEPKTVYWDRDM
Experimental: (§1) Direct Peptide Binding Assay. Wells of microtiter plates are pretreated with 100 μl 2.5% glutaraldehyde in distilled water for 2 h at 20° C., washed with distilled water, and coated for 16 h at 4° C. with 100 μl of peptide diluted at 5 μg/ml either in carbonate-bicarbonate buffer, pH 9.6, or in PBS, pH 7.4 or pH 5.0. Remaining free sites are blocked by incubation for 2 h at 20° C. with BSA diluted 1% in PBS containing 0.05% Tween 20 (Tw) and 0.02% sodium azoture. After washing, purified ^125 I-HLA molecules (100 μl containing 1.5×10^5 cpm, 10^-9 M) diluted in PBS containing 1% BSA, 0.05% Tw, 0.02% sodium azoture, 1 mM PMSF, and 10 μg/ml trypsin inhibitor are added and incubated for 20 h at 20° C. After extensive washing, the radioactivity of each well is counted.
(§2) Inhibition Peptide Binding Assay. Concentrations of 0.1-100 μM of competitor peptides are incubated in tubes for 0-3 h at 20° C. with ^125 I-HLA (10^-9 M) diluted in PBS--BSA--Tw containing the protease inhibitors as mentioned above. […] After extensive washing, the radioactivity in each well is counted and the percent of inhibition is calculated.
(§3) COS-1 cells (usually 10^7 cells) were transfected with pSC-K^d -15 DNA, labeled and lysed as above. […] After the final wash in PBS, SC-K^d -15 was eluted from the matrix with an equal volume of 3M thiocyanate for 10 min on ice. After an overnight dialysis in PBS containing 0.1% NP40, 0.05% Tween and 0.2% BSA, SC-K^d -15 was used in direct binding test as below. Its purity was assessed by SDS-PAGE.
Peptides used in this study are described in Choppin et al. (Choppin, J., Martinon, F., Gomard, E., Bahraoui, E., Connan, F., Bouillot, F., and Levy, J.-P, J. Exp. Med., 1990. 172:889 and references therein), except for HLA-Cw3 and HLA-A24 described in Maryanski, J. Ll, Pala, P., Cerottini, J.-C, and Corradin, G., J. Exp. Med. 1988. 167:1391. Binding assays were performed as described in Choppin, J., Martinon, F., Gomard, E., Bahraoui, E., Connan, F., Bouillot, F., and Levy, J.-P, J. Exp. Med., 1990. 172:889. DR3, DRw13, and K^d molecules were also purified and iodinated as in Choppin, J., Martinon, F., Gomard, E., Bahraoui, E., Connan, F., Bouillot, F., and Levy, J.-P, J. Exp. Med., 1990. 172:889.
K^d molecules isolated from the spleen of BALB/c mice were then purified and iodinated. They were purified by affinity chromatography on a 20-8-4 mAb column and compared binding of peptides by the latter and by ^35 S-labeled SC-K^d -15 in the assay of Bouillot et al. (Bouillot, M., Choppin, J., Cornille, F., Martinon, F., Papo, T., Gomard, E., FournieZaluski, M.-C., and Levey, J.-P., Nature 1989. 339:473 and Choppin, J., Martinon, F., Gomard, E., Bahraoui, E., Connan, F., Bouillot, F., and Levy, J.-P, J. Exp. Med., 1990. 172:889).

SC-K^d -15 [2] = molecular target: T1, SC-K^d -15; experiment: as above; settings: Table 10 (A), input 10,000 cpm, duplicates
mAb 34-1-2 = experiment: Immunoprecipitation of 35S-labeled SC-K^d molecules from transfected COS-1 cell extracts by mAb 34-1-2; format: binding
Experimental: as §3

SC-K^d -15 (mouse) [3] = molecular target: SC-K^d -15 (mouse) (UniProt P01887); experiment: direct peptide binding assay, peptide coated at 10 µg/ml pH 5, 35S-labeled SC-Kd, input 10,000 cpm, duplicate
SC-K^d -15 (mouse) [4] = molecular target: SC-K^d -15 (mouse) (UniProt P01887)
[5] = molecular target: K^d molecules isolated from the spleen of BALB/c mice (mouse) (UniProt P01887)
HLA-DR3 (human) [6] = experiment: direct peptide binding assay, peptide coated at 10 µg/ml pH 5, 125I-labeled HLA-DR3, input 200000 cpm, duplicate
HLA-DRw13 (human) [7] = experiment: direct peptide binding assay, peptide coated at 10 µg/ml pH 5, 125I-labeled HLA-DRw13, input 200000 cpm, duplicate
HLA-DRw13 (human) [8] = experiment: direct peptide binding assay, peptide coated at 30 µg/ml pH 9.6, 125I-labeled HLA-DRw13, input 200000 cpm, duplicate
SC-K^d -15 (mouse) [9] = molecular target: SC-K^d -15 (mouse) (UniProt P01887); experiment: direct peptide binding assay, peptide coated at 30 µg/ml pH 9.6, 35S-labeled SC-Kd, input 10,000 cpm, duplicate
HLA-DR3 (human) [10] = experiment: direct peptide binding assay, peptide coated at 30 µg/ml pH 9.6, 125I-labeled HLA-DR3, input 200000 cpm, duplicate
[11] = molecular target: K^d molecules isolated from the spleen of BALB/c mice (mouse) (UniProt P01887); experiment: direct peptide binding assay, peptide coated at 10 µg/ml pH 9.6, 125I-labeled H-2K, input 100000 cpm, no coated peptide 1471 and 1595, duplicate
SC-K^d -15 (mouse) [12] = molecular target: SC-K^d -15 (mouse) (UniProt P01887); experiment: direct peptide binding assay, peptide coated at 10 µg/ml pH 9.6, 35S-labeled SC-Kd, input 6000 cpm, no coated peptide 228 and 223, duplicate
SC-K^d -15 (mouse) [13] = molecular target: SC-K^d -15 (mouse) (UniProt P01887); experiment: direct peptide binding assay, peptide coated at 5 µg/ml pH 9.6, 35S-labeled SC-Kd, input 6000 cpm, no coated peptide 228 and 223, duplicate
DRw13 = DRw13 (Homo sapiens, UniProt P01903+P01911); experiment: Direct peptide binding assay with purified 125I-labeled HLA-DRw13 (positive control)
Experimental: (§4) Direct Peptide Binding Assay. Wells of microtiter plates are pretreated with 100 μl 2.5% glutaraldehyde in distilled water for 2 h at 20° C., washed with distilled water, […] buffer, pH 9.6, or in PBS, pH 7.4 or pH 5.0. Remaining free sites are blocked by incubation for 2 h at 20° C. with BSA diluted 1% in PBS containing 0.05% Tween 20 (Tw) and 0.02% sodium azoture. […] After extensive washing, the radioactivity of each well is counted.

[14] = molecular target: T2, K^d molecules isolated from the spleen of BALB/c mice (Mus musculus, UniProt P01902); experiment: Direct peptide binding assay with purified 125I-labeled conventional K^d
T2 construct: K^d molecules isolated from the spleen of BALB/c mice; from tissue
T2 sequence (P01902 22-368): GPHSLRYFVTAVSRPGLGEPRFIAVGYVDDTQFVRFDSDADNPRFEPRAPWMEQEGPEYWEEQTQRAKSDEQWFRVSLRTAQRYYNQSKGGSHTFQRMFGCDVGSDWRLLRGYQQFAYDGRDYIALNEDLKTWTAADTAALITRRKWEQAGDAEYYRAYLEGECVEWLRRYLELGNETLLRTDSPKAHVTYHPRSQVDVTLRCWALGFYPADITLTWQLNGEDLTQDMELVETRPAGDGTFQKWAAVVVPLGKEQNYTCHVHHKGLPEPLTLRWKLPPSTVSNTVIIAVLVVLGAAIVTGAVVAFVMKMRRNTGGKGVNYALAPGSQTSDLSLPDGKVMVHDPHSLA
T2 sequence (P01887 21-119 partner): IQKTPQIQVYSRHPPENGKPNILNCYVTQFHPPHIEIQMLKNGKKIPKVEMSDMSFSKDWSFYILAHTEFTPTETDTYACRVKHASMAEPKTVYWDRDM
Experimental: as §1
as §2, with “calculated. […]” for “calculated.”

HLA-DR3 = HLA-DR3 (Homo sapiens, UniProt P01903+P01911); experiment: Direct peptide binding assay with purified 125I-labeled HLA-DR3 (positive control)
Experimental: as §4

[15] = Table 10 (A), input 200000 cpm, peptide 10 μg/ml, pH 5, duplicates

**Q.** How did the “35S-labeled SC-Kd bound to coated peptide” value (SC-K^d -15 [1]; Table 10 (B), input 6000 cpm, peptide 5 μg/ml, pH 9.6, duplicates) turn out when IRIQRGPGRAFVTIGK [env 312-327] was run?
**A.** 390 cpm and 377 cpm

**Q.** And the “binding of peptide to SC-K^d -15 (in words)” value (SC-K^d -15 [1])?
**A.** significant binding

**Q.** What about the “35S-labeled SC-Kd bound to coated peptide” value (SC-K^d -15 [2]; peptide 30 μg/ml, pH 9.6) of the same substance?
**A.** 750 cpm and 712 cpm

**Q.** TYQRTRALVTG [NPR 147-158] was tested. Which “effect of added immunogenic peptide on immunoprecipitation of SC-K^d molecules” value (mAb 34-1-2) did it give?
**A.** no effect

**Q.** What does the source list for HIV 1 Vpr. 68-80 (peptide)?
**A.** cpm bound (SC-K^d -15 (mouse) [3]): 710 cpm and 621 cpm; cpm bound to coated env 312-327 in the presence of the competitor (SC-K^d -15 (mouse) [4]): 42 cpm and 41 cpm; cpm bound to coated env 312-327 in the presence of the competitor [5]: 359 cpm and 409 cpm; cpm bound (HLA-DR3 (human) [6]): 18600 cpm and 18200 cpm; cpm bound (HLA-DRw13 (human) [7]): 21800 cpm and 20600 cpm

**Q.** How did the cpm bound (HLA-DRw13 (human) [8]) turn out when HIV 1 Nef. 66-80 (peptide) was run?
**A.** 1390 cpm and 1290 cpm

**Q.** And the cpm bound (SC-K^d -15 (mouse) [9])?
**A.** 475 cpm and 397 cpm

**Q.** What about the cpm bound (HLA-DR3 (human) [10]) of the same substance?
**A.** 2320 cpm and 1820 cpm

**Q.** For HLA-A24 170-182 (peptide), which cpm bound [11] is on record?
**A.** 1060 cpm and 1300 cpm

**Q.** What about the cpm bound (SC-K^d -15 (mouse) [12]) of the same substance?
**A.** 284 cpm

**Q.** Which results are given for HIV 1 Env. 312-327 (peptide)?
**A.** cpm bound (HLA-DRw13 (human) [8]): 22600 cpm; cpm bound (SC-K^d -15 (mouse) [13]): 390 cpm and 377 cpm; cpm bound (SC-K^d -15 (mouse) [9]): 750 cpm and 712 cpm; cpm bound (HLA-DR3 (human) [10]): 3780 cpm

**Q.** How did the “125I-labeled HLA-DRw13 bound to coated peptide” value (DRw13; [15]) turn out when LFIHFRIGORHSR [vpr 68-80] was run?
**A.** 21838 cpm and 20593 cpm

**Q.** And the “binding of peptide to DR213 positive control (in words)” value (DRw13; direct binding assay)?
**A.** significant binding

**Q.** What about the “35S-labeled SC-Kd bound to coated env 312-327 in presence of the competing peptide” value (SC-K^d -15 [1]; Table 10 (B), competition, env 312-327 bound to plastic + labelled peptide as competitor, input 6000 cpm, duplicates) of the same substance?
**A.** 42 cpm and 41 cpm

**Q.** What about the “competition with env 312-327 peptide bound to plastic (in words)” value (SC-K^d -15 [1]; competition experiment, SC-K^d) of the same substance?
**A.** competed efficiently

**Q.** And the “binding of peptide to SC-K^d -15 (in words)” value (SC-K^d -15 [1])?
**A.** significant binding

**Q.** And the “125I-labeled H-2K bound to coated env 312-327 in presence of the competing peptide” value ([14]; Table 10 (B), competition, env 312-327 bound to plastic + labelled peptide as competitor, input 100000 cpm, duplicates)?
**A.** 359 cpm and 409 cpm

**Q.** What about the “competition with env 312-327 peptide bound to plastic (in words)” value ([14]; competition experiment, K^d) of the same substance?
**A.** competed efficiently

**Q.** What about the “125I-labeled HLA-DR3 bound to coated peptide” value (HLA-DR3; [15]) of the same substance?
**A.** 18582 cpm and 18245 cpm

**Q.** What about the “binding of peptide to HLA-DR3 positive control (in words)” value (HLA-DR3; direct binding assay) of the same substance?
**A.** significant binding

**Q.** And the “35S-labeled SC-Kd bound to coated peptide” value (SC-K^d -15 [2]; peptide 10 μg/ml, pH 5)?
**A.** 710 cpm and 621 cpm

**Q.** HLA-Cw3 170-182 (peptide) was tested. Which cpm bound to coated env 312-327 in the presence of the competitor (SC-K^d -15 (mouse) [4]) did it give?
**A.** 367 cpm and 375 cpm

**Q.** And the cpm bound to coated env 312-327 in the presence of the competitor [5]?
**A.** 15400 cpm and 15800 cpm

**Q.** What about the cpm bound [11] of the same substance?
**A.** 1340 cpm and 1380 cpm

**Q.** And the cpm bound (SC-K^d -15 (mouse) [12])?
**A.** 169 cpm and 117 cpm

Source: patent US6011146A, “Altered major histocompatibility complex (MHC) determinant and methods of using the determinant” (Institut Pasteur, priority 1995, dated 2000)
